Patent publication US20220195054A1 (BERGEN TEKNOLOGIOVERF RING, published 2022)
Substitutions are numbered along the chain they refer to. “And” between values parts separate entries of the source, which are not always exact repeats. Equal entries are not always repeated.

What was measured:
[1] = target: recombinant human Axl-Fc chimera (rhAxl-Fc; R&D Systems, Cat. no. 154-AL) (human) (UniProt P30530); experiment: SPR two-injection competition on immobilised Axl-Fc; response expected for the second sample (first: YW327.6S2)
[2] = target: recombinant human Axl-Fc chimera (rhAxl-Fc; R&D Systems, Cat. no. 154-AL) (human) (UniProt P30530); experiment: SPR two-injection competition on immobilised Axl-Fc; second injection, competitor bound first: YW327.6S2
[3] = target: recombinant human Axl-Fc chimera (rhAxl-Fc; R&D Systems, Cat. no. 154-AL) (human) (UniProt P30530); experiment: SPR two-injection competition on immobilised Axl-Fc; second injection, competitor bound first: 10G5
[4] = target: recombinant human Axl-Fc chimera (rhAxl-Fc; R&D Systems, Cat. no. 154-AL) (human) (UniProt P30530); experiment: SPR two-injection competition on immobilised Axl-Fc; response expected for the second sample (first: 10G5)
[5] = target: recombinant human Axl-Fc chimera (rhAxl-Fc; R&D Systems, Cat. no. 154-AL) (human) (UniProt P30530); experiment: SPR two-injection competition on immobilised Axl-Fc; first injection
[6] = target: T1, recombinant human Axl-Fc chimera (rhAxl-Fc; R&D Systems, Cat. no. 154-AL) (human, UniProt P30530 26-451); experiment: SPR (Biacore), rhAxl immobilised; same values as Table 1
T1 construct: Bought construct; also called rhAxi-Fc; Hu-Axl-Fc; Fc part of the bought chimera not given

[7] = target: T2, recombinant human Mer-Fc chimera (rhMer-Fc; R&D Systems, Cat no. 891-MR) (human, UniProt Q12866 21-505); experiment: Biacore 3000 SPR, rhMer-Fc on a CM5 chip, antibody injected for 3 min; concentration from Example 2, not printed on the sheet
T2 construct: Bought construct; Fc part of the bought chimera not given
T2 sequence: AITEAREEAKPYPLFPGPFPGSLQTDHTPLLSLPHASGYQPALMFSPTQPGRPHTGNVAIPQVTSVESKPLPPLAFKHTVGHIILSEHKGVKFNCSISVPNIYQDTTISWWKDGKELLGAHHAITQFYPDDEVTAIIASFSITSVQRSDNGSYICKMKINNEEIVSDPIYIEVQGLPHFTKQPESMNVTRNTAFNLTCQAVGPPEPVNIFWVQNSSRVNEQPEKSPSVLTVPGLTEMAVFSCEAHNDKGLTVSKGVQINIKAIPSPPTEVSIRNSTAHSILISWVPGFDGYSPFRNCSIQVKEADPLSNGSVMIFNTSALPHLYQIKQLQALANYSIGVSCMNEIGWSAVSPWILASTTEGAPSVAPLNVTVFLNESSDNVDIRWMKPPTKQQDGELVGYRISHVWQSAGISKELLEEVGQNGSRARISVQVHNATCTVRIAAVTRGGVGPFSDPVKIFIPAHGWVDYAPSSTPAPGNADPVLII

[8] = target: T3, recombinant human Tyro3/Dtk-Fc chimera (rhTyro3/Dtk-Fc; R&D Systems, Cat no. 859-DK) (human, UniProt Q06418 41-429); experiment: Biacore 3000 SPR, rhTyro3/Dtk-Fc on a CM5 chip, antibody injected for 3 min; concentration from Example 2, not printed on the sheet
T3 construct: Bought construct; Fc part of the bought chimera not given
T3 sequence: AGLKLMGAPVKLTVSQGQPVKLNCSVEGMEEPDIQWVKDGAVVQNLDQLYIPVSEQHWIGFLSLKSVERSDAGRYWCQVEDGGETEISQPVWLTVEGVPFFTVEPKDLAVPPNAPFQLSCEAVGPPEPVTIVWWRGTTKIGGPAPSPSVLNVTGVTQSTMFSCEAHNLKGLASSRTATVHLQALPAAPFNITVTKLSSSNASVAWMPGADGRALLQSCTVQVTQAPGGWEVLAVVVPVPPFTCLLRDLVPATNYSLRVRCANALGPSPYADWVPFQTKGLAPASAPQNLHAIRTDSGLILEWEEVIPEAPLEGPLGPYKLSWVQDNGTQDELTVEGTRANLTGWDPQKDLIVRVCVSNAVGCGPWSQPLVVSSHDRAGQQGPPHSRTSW

[9] = target: T1, recombinant human Axl-Fc chimera …; experiment: SPR (Biacore 3000, 25 C), rhAxl-Fc immobilised (190 RU), antibody as analyte, koff/kon
[10] = target: T4, recombinant cyno-Axl-Fc (extracellular domain of Axl from Macaca fascicularis fused to human Fc) (cynomolgus monkey (Macaca fascicularis), UniProt P30530 26-451 (human entry)); experiment: Biacore 3000 SPR, cyno-Axl-Fc on a CM5 chip, antibody injected at 10 µg/mL for 3 min, 5 min dissociation [upper panel 10G5]
T4 construct: Made by transient expression in CHO cells; also called Axl from cynomolgus monkey; not shown: human Fc
T4 chain: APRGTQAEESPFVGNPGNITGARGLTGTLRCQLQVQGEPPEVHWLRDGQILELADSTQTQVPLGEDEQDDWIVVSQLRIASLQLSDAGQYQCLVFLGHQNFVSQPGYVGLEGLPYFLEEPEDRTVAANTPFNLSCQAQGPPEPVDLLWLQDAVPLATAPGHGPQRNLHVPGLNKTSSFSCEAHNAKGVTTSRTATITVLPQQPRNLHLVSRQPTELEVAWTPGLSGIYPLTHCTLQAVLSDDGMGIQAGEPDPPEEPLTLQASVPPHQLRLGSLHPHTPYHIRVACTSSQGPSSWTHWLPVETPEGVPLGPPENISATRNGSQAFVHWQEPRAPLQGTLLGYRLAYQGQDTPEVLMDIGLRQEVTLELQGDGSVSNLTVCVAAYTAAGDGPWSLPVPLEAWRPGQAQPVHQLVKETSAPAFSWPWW

[11] = target: T1, recombinant human Axl-Fc chimera …; experiment: SPR (Biacore 3000, 25 C), rhAxl-Fc immobilised; ln2/koff
[12] = target: T1, recombinant human Axl-Fc chimera …; experiment: SPR (Biacore 3000, 25 C), rhAxl-Fc immobilised (190 RU), antibody as analyte, 1:1 Langmuir
[13] = target: T1, recombinant human Axl-Fc chimera …; experiment: SPR (Biacore), rhAxl immobilised on the sensor chip, antibody as analyte
[14] = target: T1, recombinant human Axl-Fc chimera …; experiment: SPR (Biacore), rhAxl immobilised on the sensor chip
[15] = target: T5, human Axl receptor on cells (MDA-MB-231, HeLa, LX2, Axl-positive cells) (human, UniProt P30530 26-894); experiment: cell-based or functional assay
[16] = target: T5, human Axl receptor on cells …; experiment: flow cytometry on MDA-MB-231 cells, APC-conjugated anti-human IgG F(ab')2 detection
[17] = target: T5, human Axl receptor on cells …; experiment: flow cytometry titration on MDA-MB-231 cells, Kd of the fitted curve, the axis of the fitted curves is Conc. (nM) [table under the graph]
[18] = target: T5, human Axl receptor on cells …; experiment: cell-based or functional assay; remark: listed apart in the source
[19] = target: recombinant human Axl-Fc chimera (rhAxl-Fc; R&D Systems, Cat. no. 154-AL) (human) (UniProt P30530); experiment: SPR two-injection competition on immobilised Axl-Fc; second injection, competitor bound first: Gas6
[20] = target: recombinant human Axl-Fc chimera (rhAxl-Fc; R&D Systems, Cat. no. 154-AL) (human) (UniProt P30530); experiment: SPR two-injection competition on immobilised Axl-Fc; response expected for the second sample (first: Gas6)
[21] = target: recombinant human Axl-Fc chimera (rhAxl-Fc; R&D Systems, Cat. no. 154-AL) (human) (UniProt P30530); experiment: SPR two-injection competition on immobilised Axl-Fc; response expected for the second sample (first: H2L1)
[22] = target: recombinant human Axl-Fc chimera (rhAxl-Fc; R&D Systems, Cat. no. 154-AL) (human) (UniProt P30530); experiment: SPR two-injection competition on immobilised Axl-Fc; second injection, competitor bound first: H2L1

B1: chimeric 1H12 anti-Axl antibody (antibody, from another filing, V domains shown)
VH: EVQLVESGGDLVKPGGSLKLSCAASGFTFSSYGMSWVRQTPDKRLEWVATISSGGSYTYYPDSVKGRFTISRDNAKNTLYLQMSSLKSEDTAMYYCARHPIYYTYDDTMDYWGQGTSVTVSS
VL: ENVLTQSPAIMAASPGEKVTMTCSASSSVSSGNFHWYQQKPGTSPKLWIYRTSNLASGVPARFSGSGSGTSYSLTISSMEAEDAATYYCQQWSGYPWTFGGGTKLEIK
Expected response if independent [1]: 400
2nd Response [2]: 400
2nd Response [3]: 180
Expected response if independent [4]: 220
1st Response [5]: 400 and 220

B2: mouse monoclonal antibody 10G5 (antibody, V domains shown)
VH: QVQLQQSGAELVRPGASVKLSCKASGYSFTDFYINWVRQRPGQGLEWIARIFPGGDNTYYNEKFKGKATLTAEESSSTAYIQLSSLTSEDSAVYFCARRGLYYAMDYWGQGISVTVSS
VL: DVLMTQTPLSLPVSLGDQASISCRSSQSLVHSNGIPYLHWYLQKPGQSPKLLIYRVSNRFSGVPDRFSGSGSGTDFTLKISRVEAEDLGVYFCSQGTHVPPTFGGGTKLEIK
notes: Whole mouse IgG purified from hybridoma supernatant; also called murine 10G5; MAb 10G5
Half-life (t1/2) [6]: 26.3 min
Kd [6]: 0.53 nM
koff [6]: 0.000439 s⁻¹
kon [6]: 829000 M⁻¹ s⁻¹
binding result [7]: no binding (tested: 10 µg/mL)
binding result [8]: no binding (tested: 10 µg/mL)
Kd [9]: 0.53 nM
binding result [10]: binds
Half-life (t1/2) [11]: 26.3 min
koff [12]: 0.000439 s⁻¹
kon [12]: 829000 M⁻¹ s⁻¹

B3: humanised 10G5 antibody H1L1 (antibody, human IgG1, kappa, V domains shown)
VH: EVQLVQSGAGLVQPGGSVRLSCAASGYSFTDFYINWVRQAPGKGLEWIARIFPGGDNTYYNEKFKGRFTLSADTSSSTAYLQLNSLRAEDTAVYYCARRGLYYAMDYWGQGTLVTVSS
VL: DIQMTQSPSSLSASVGDRVTITCRSSQSLVHSNGIPYLHWYQQKPGKAPKLLIYRVSNRFSGVPSRFSGSGSGTDFTLTISSLQPEDFATYYCSQGTHVPPTFGQGTKVEIKR
notes: H1L1 is read as GH1 heavy chain + GL1 light chain; also called hu10G5 H1L1
Kd [13]: 0.105 nM
koff [13]: 0.000161 s⁻¹
kon [13]: 1.54e+06 M⁻¹ s⁻¹
Half-life (t1/2) [14]: 71.7 min
EC50 (pM), tumour cell killing by antibody-Saporin conjugates, as in Example 20 [15]: 17.1 pM
EC50 (read off the curve) [16]: ~0.1 nM
Kd [17]: 0.12 nM
EC50 (pM), killing of MDA-MB-231 cells by antibody coupled to Saporin (FabFc-ZAP), XTT/PMS viability after 72 hrs [18]: 3.44 pM

B4: humanised 10G5 antibody H2L1 (antibody, human IgG1, kappa, V domains shown)
VH: B3 VH with Q6E, A9G, V18L, I48V, S76K, L83M
VL: B3 VL
notes: H2L1 is read as GH2 heavy chain + GL1 light chain; also called hu10G5 H2L1; Hu10G5 (H2L1)
2nd Response [19]: 301
Kd [13]: 0.0686 nM
koff [13]: 0.000142 s⁻¹
kon [13]: 2.07e+06 M⁻¹ s⁻¹
Expected response if independent [20]: 318
Half-life (t1/2) [14]: 81.4 min
EC50 (pM), tumour cell killing by antibody-Saporin conjugates, as in Example 20 [15]: 2.66 pM
EC50 (read off the curve) [16]: ~0.2 nM
Kd [17]: 0.192 nM
Expected response if independent [21]: 323
2nd Response [22]: 8.9
EC50 (pM), killing of MDA-MB-231 cells by antibody coupled to Saporin (FabFc-ZAP), XTT/PMS viability after 72 hrs [18]: 2.68 pM
1st Response [5]: 323
